# Measurements as given in the supplement of paper PMC10126150.
# ± gives the standard deviation of the averaged measurements.
# Tested on: ATP
# Test: switch fluorescence ratio, 500 uM ATP over buffer (Cy3 cluster intensity, sum of 5 cycles each) (fold (ratio)); higher = stronger signal-on switching upon ATP binding; sequences stand for … in TCGTCGGCAGCGTCAGATGTGTATAAGAGACAGTTTTTTTTTTTTTTTTTTTTTTTTT…TC
# Conditions: aptamer strand: ATP DNA aptamer (quencher-CACCTGGGGGAGTATTGCGGAGGAAGG + anchor), 100 nM annealed; ATP concentration: 500 uM
# In short: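 Cy3-labelled switching-strand clusters on a modified Illumina MiSeq flow-cell were annealed to 100 nM quencher-labelled ATP aptamer and imaged first in selection buffer, then after 15 min with 500 uM ATP at 22 °C. NaOH stripping and re-annealing separated each of five buffer/ATP cycles, and clusters outside 100-1000 RFU were excluded. The fluorescence ratio sums target-cycle Cy3 intensity over buffer-cycle Cy3 intensity per cluster and averages it per switch-domain sequence.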
# 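Note: ATP exposure 15 min at 22 °C before imaging.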
row,Sequence,switch fluorescence ratio
1,TTACGGGGAG,1 ± 0.034
2,TCAGGAGTAA,1.82 ± 0.12
3,GTTTTGGTGG,0.998 ± 0.029
4,AAGGTTAAGT,1.02 ± 0.016
5,TTTGGGACCT,1 ± 0.048
6,GGGAAAAAGG,0.983 ± 0.029
7,TGGCGTAGGT,1.005 ± 0.0083
8,GGATTGGTTG,0.999 ± 0.038
9,ATTTATGTTC,0.994 ± 0.033
10,AACGGGCGGG,1.15 ± 0.014
11,TCGATCCAAC,1.064 ± 0.0065
12,AAGGAGAGGG,1 ± 0.096
13,GGTGTTCATG,0.974 ± 0.024
14,ATCGGGGTGC,1.03 ± 0.016
15,TTTCTCAAAA,1.03 ± 0.024
16,AATTTAAGGC,0.985 ± 0.078
17,GGGCTTGTAA,0.964 ± 0.012
18,TAGGGTTTTT,1.03 ± 0.038
19,AGGATTAGGA,1.01 ± 0.062
20,GATGCAAGGG,1.83 ± 0.14
21,AAGAGAAGCC,1.02 ± 0.078
22,ATTTGACTTT,1.04 ± 0.031
23,AAGGGCCCAA,1.004 ± 0.0074

row,Sequence,switch fluorescence ratio
1,GATAGGAAAC,1.12 ± 0.12
2,AAAGTCTAAA,0.977 ± 0.015
3,GGCCGGGTTC,1.01 ± 0.022
4,TTACCAGTTG,1.04 ± 0.031
5,TCAATTTCAC,1.9 ± 1.3
6,GACACGTGTT,1.03 ± 0.045
7,TATGTACGTG,1.02 ± 0.053
8,TGCAGAGGGC,1.03 ± 0.02
9,GTTATTGAAG,0.982 ± 0.022
10,CTTGCATGGC,1.077 ± 0.0092
11,GTAGGGGATT,1.029 ± 0.006
12,ACTGAGGATG,1.06 ± 0.0063
13,CCAGTCTGTA,0.9492 ± 0.0057
14,TATATTTCTG,0.986 ± 0.019
15,AGGCAGTCCA,1.003 ± 0.0065
16,TGGATGGCCC,1.02 ± 0.016
17,TCCCGTAAGT,1.05 ± 0.069
18,CTGGTAATTT,1.02 ± 0.079
19,TGTCAGTTAT,0.979 ± 0.031
20,TTGGACTACT,0.984 ± 0.035
21,AGAGTTTGGG,0.988 ± 0.0099
22,GGTGATCCTG,0.977 ± 0.028
23,GATCTGGGTT,0.994 ± 0.031

row,Sequence,switch fluorescence ratio
1,CAAATAAATT,0.989 ± 0.029
2,GGGGCAAAGG,1.03 ± 0.075
3,AAGGGATATG,1 ± 0.013
4,CAGTCCGGCA,1.05 ± 0.021
5,GGCGATTGCG,0.979 ± 0.0041
6,TGTAGTATTT,1 ± 0.013
7,GCTTGCAAGG,0.991 ± 0.017
8,TTATTGTTTT,1.02 ± 0.065
9,CTAGTTATGA,1.02 ± 0.016
10,GGTACTCTTT,1 ± 0.037
11,ACTTCGAATA,1.36 ± 0.07
12,TGGGTTAATG,0.9912 ± 0.0069
13,CAGTCATTCG,0.99 ± 0.016
14,ACGACGAAAC,3.35 ± 1
15,TAATATAAAC,1.002 ± 0.0078
16,GGGGGCTGCA,1.02 ± 0.032
17,TGGGTTTGAG,0.99 ± 0.035
18,TCAGTTTTCT,1.01 ± 0.057
19,TGGATAAGGT,1.05 ± 0.13
20,GGATGGGGTT,1 ± 0.018
21,ATATCCTCCC,1.35 ± 0.016
22,TTAATTAAAC,1.013 ± 0.0035
23,ATTTGAGTGC,0.966 ± 0.002

row,Sequence,switch fluorescence ratio
1,ACTTTGGTCT,1.04 ± 0.051
2,GATAGAGGTG,1.32 ± 0.62
3,ACGAAAAAAG,1.02 ± 0.012
4,TTTGCAAACA,1 ± 0.061
5,TAATAGGGCA,1.002 ± 0.007
6,GACGTTATGT,1 ± 0.019
7,TGGGATTTAG,1 ± 0.044
8,TAAATTATTT,0.999 ± 0.023
9,TTTAAGGTTA,0.999 ± 0.025
10,ACTGGACACA,1.22 ± 0.069
11,TTTTGCGAAG,1.03 ± 0.027
12,AAGGAGGCAC,0.985 ± 0.021
13,GGATCCAAAT,0.947 ± 0.017
14,TTTCGGGGGC,0.993 ± 0.028
15,TGAAATAAG,0.979 ± 0.026
16,GCTTTACTCA,1.36 ± 0.049
17,CATGGGAAGG,0.997 ± 0.034
18,GGTGGGGAGC,1 ± 0.021
19,ATTTGGTAGG,1 ± 0.012
20,AGACTTATTT,1.01 ± 0.013
21,TAAGCGGTTG,0.989 ± 0.016
22,AGGGAAAAGA,1.03 ± 0.031
23,ATTACGACTG,1.06 ± 0.031

row,Sequence,switch fluorescence ratio
1,ATGGTTAGTG,0.975 ± 0.011
2,TTTTTGCTGG,0.99 ± 0.029
3,TTAAAAATGG,1.02 ± 0.018
4,GCTAGGGGGG,1 ± 0.04
5,CTTTATGGGG,0.974 ± 0.029
6,AGTTGGGGCT,1.01 ± 0.023
7,GCCTTGATGT,1.01 ± 0.032
8,GCTGTAGGTC,1.04 ± 0.013
9,AAGGGAGGAC,0.9939 ± 0.002
10,AGATGGTCTG,1.01 ± 0.032
11,TTTTTCCGAG,1.08 ± 0.025
12,AGGGGTTATG,1 ± 0.021
13,TGATGGGCAT,1.01 ± 0.018
14,GATGTGTTCT,0.988 ± 0.042
15,GCATGGGGCG,1.037 ± 0.0041
16,TTACGGAGGC,1.0641 ± 5.8e-05
17,AAGGGAGGGC,0.96 ± 0.032
18,TATTGGAGTG,0.966 ± 0.084
19,AAGCCGAGGG,1.017 ± 0.0022
20,AAGCCAAATG,0.994 ± 0.029
21,TTGTTGGTCC,1.16 ± 0.25
22,ATGTGATCGC,0.986 ± 0.042
23,AGCTATCAGC,1.01 ± 0.047

row,Sequence,switch fluorescence ratio
1,CAGGGTTTCG,1.02 ± 0.078
2,GAAGATTTGC,0.973 ± 0.012
3,GGGGTGGTGT,1.03 ± 0.027
4,AGTAAAAATG,0.982 ± 0.027
5,TACATCGTCC,1.05 ± 0.024
6,GCTTTATTCC,1.06 ± 0.018
7,TGGGGGCGCC,0.982 ± 0.041
8,AGTGGGGCT,0.9794 ± 0.0071
9,CCTGGCGCCA,1.006 ± 0.0021
10,TATGATGGGG,0.963 ± 0.035
11,GGGTTGACTT,1.015 ± 0.0018
12,ATATCTCCGG,1.07 ± 0.014
13,TCGGGGGTCC,1 ± 0.066
14,GGTTAGGGGC,0.995 ± 0.04
15,ATTTCATGG,0.97 ± 0.057
16,TAACATCTTT,1.03 ± 0.013
17,TATTTTTAGG,1 ± 0.032
18,CCCCACTTGC,1.32 ± 0.11
19,AATGTGGGGT,0.995 ± 0.026
20,ATGGGTTTAA,0.961 ± 0.063
21,AGGGTTGACA,0.981 ± 0.046
22,AGGTCGGACA,1.006 ± 0.0094
23,TTGGTTTCGT,1.022 ± 0.0059

row,Sequence,switch fluorescence ratio
1,AATTTGAGCC,0.965 ± 0.039
2,TCGTATGCGT,1.11 ± 0.25
3,ATAGGGGCGG,0.978 ± 0.035
4,AGATATTCGG,0.984 ± 0.07
5,TGTGAGTTTG,1.03 ± 0.013
6,CTGGTGGAGC,0.954 ± 0.021
7,TCGGCTATGA,1.03 ± 0.021
8,CATTCGTAGG,0.965 ± 0.042
9,GGGGCTGTTG,0.966 ± 0.024
10,GTTTTATGTA,1.025 ± 0.0069
11,GGTTGTGGCA,1.03 ± 0.011
12,GTTGCAGGAA,0.992 ± 0.04
13,GGGAGGAATG,0.989 ± 0.021
14,AAGCCGATCT,0.974 ± 0.046
15,TTGGTATTTG,0.993 ± 0.018
16,GATTTTAGTC,0.993 ± 0.04
17,ACTAGGTGCG,1.06 ± 0.045
18,TATGGGATTA,1.04 ± 0.064
19,CGGGTCGGCA,1.03 ± 0.017
